Measured values as given in publication PMC11185801 (bioRxiv, 2024).

Biological target: the molecule itself
Assay: cryo-EM structure

Row | Protein | stoichiometry N
1 | human Kir7.1 R162Q mutant (natural protein) MDSSNCKVIAPLLSQRYRRMVTKDGHSTLQMDGAQRGLAYLRDAWGILMDMRWRWMMLVFSASFVVHWLVFAVLWYVLAEMNGDLELDHDAPPENHTICVKYITSFTAAFSFSLETQLTIGYGTMFPSGDCPSAIALLAIQMLLGLMLEAFITGAFVAKIAQPKNRAFSIRFTDTAVVAHMDGKPNLIFQVANTRPSPLTSVRVSAVLYQERENGKLYQTSVDFHLDGISSDECPFFIFPLTYYHSITPSSPLATLLQHENPSHFELVVFLSAMQEGTGEICQRRTSYLPSEIMLHHCFASLLTRGSKGEYQIKMENFDKTVPEFPTPLVSKSPNRTDLDIHINGQSIDNFQISETGLTE | 4
2 | human Kir7.1 E276A mutant (natural protein) MDSSNCKVIAPLLSQRYRRMVTKDGHSTLQMDGAQRGLAYLRDAWGILMDMRWRWMMLVFSASFVVHWLVFAVLWYVLAEMNGDLELDHDAPPENHTICVKYITSFTAAFSFSLETQLTIGYGTMFPSGDCPSAIALLAIQMLLGLMLEAFITGAFVAKIARPKNRAFSIRFTDTAVVAHMDGKPNLIFQVANTRPSPLTSVRVSAVLYQERENGKLYQTSVDFHLDGISSDECPFFIFPLTYYHSITPSSPLATLLQHENPSHFELVVFLSAMQAGTGEICQRRTSYLPSEIMLHHCFASLLTRGSKGEYQIKMENFDKTVPEFPTPLVSKSPNRTDLDIHINGQSIDNFQISETGLTE | 4
